These results are taken from publication PMC7547085, “Specific and direct modulation of the interaction between adhesion GPCR GPR56/ADGRG1 and tissue transglutaminase 2 using synthetic ligands” (Scientific Reports, 2020).

B1: mouse tissue transglutaminase 2 C-terminal D3D4 domains (mTG2 D3D4) [modified: biotin on the AVI-tag; biotin on the AVI-tag] [mouse] / mouse full-length GPR56 (GPR56 FL), wild type, on HEK293T cells [mouse] (parent complex)
chain 1: TGVAMRIRVGDSMSMGNDFDVFAHIGNDTSETRECRLLLCARTVSYNGVLGPECGTEDINLTLDPYSENSIPLRILYEKYSGCLTESNLIKVRGLLIEPAANSYLLAERDLYLENPEIKIRVLGEPKQNRKLVAEVSLKNPLSDPLYDCIFTVEGAGLTKEQKSVEVSDPVPAGDLVKARVDLFPTDIGLHKLVVNFQCDKLKSVKGYRNVIIGPA
chain 2: GSPREDFRFCGQRNQTQQSTLHYDQSSEPHIFVWNTEETLTIRAPFLAAPDIPRFFPEPRGLYHFCLYWSRHTGRLHLRYGKHDYLLSSQASRLLCFQKQEQSLKQGAPLIATSVSSWQIPQNTSLPGAPSFIFSFHNAPHKVSHNASVDMCDLKKELQQLSRYLQHPQKAAKRPTAAFISQQLQSLESKLTSVSFLGDTLSFEEDRVNATVWKLPPTAGLEDLHIHSQKEEEQSEVQAYSLLLPRAVFQQTRGRRRDDAKRLLVVDFSSQALFQDKNSSQVLGEKVLGIVVQNTKVTNLSDPVVLTFQHQPQPKNVTLQCVFWVEDPASSSTGSWSSAGCETVSRDTQTSCLCNHLTYFAVLMVSSTEVEATHKHYLTLLSYVGCVISALACVFTIAAYLCSRRKSRDYTIKVHMNLLSAVFLLDVSFLLSEPVALTGSEAACRTSAMFLHFSLLACLSWMGLEGYNLYRLVVEVFGTYVPGYLLKLSIVGWGFPVFLVTLVALVDVNNYGPIILAVRRTPERVTYPSMCWIRDSLVSYVTNLGLFSLVFLFNLAMLATMVVQILRLRPHSQNWPHVLTLLGLSLVLGLPWALVFFSFASGTFQLVILYLFSIITSFQGFLIFLWYWSMRFQAQGGPSPLKNNSDSAKLPISSGSTSSSRI

In this experiment the parent is B1. In words: flow cytometry on cells; 5 nM TG2 D3D4 (tetramerized); GPR56 FL constructs expressed on HEK293T cells; n = 3; parent: 1; read off a plot. (In flow cytometry, cells or beads pass a laser one at a time.)
For the variant chain 2 Q12A, the ratio to parent was approximately 0.69.

On to chain 2 A112R, chain 2 S114R, for which the ratio to parent was approximately 5.3.

chain 2 R79D: the ratio to parent is approximately 0.27.

In the case of chain 2 R8E, the ratio to parent was approximately 4.7.
